The values below come from patent publication US12622945B2, “Hard tissue therapeutics” (OrthoTrophix, Inc., priority 2020, dated 2026).

Where no end group is shown, it is not given here. Some results are limits rather than exact numbers.

Data set [1] relates to subjects with knee OA. Conditions: cited from earlier work.
In data set [2] the target is T1, integrin αvβ3 (Homo sapiens, UniProt P05106+P06756).
T1 construct: purchased R&D Systems
In words: Competition ELISA with biotinylated RGD-Knottin, integrin αvβ3. In kind it is binding. As to the method:
All integrins used in this study contained the human sequence.
The binding assay was conducted as a competition ELISA using biotinylated Knottin and unlabeled peptides.
Methods were carried out as follows, as described by Bernhagen 2017.
Incubation and washing buffers were prepared using standard protocols. Recombinant human integrins were purchased from R&D Systems (Minneapolis, U.S.A.). Strep-HRP (Streptavidin-Horseradish Peroxidase conjugate, Southern-Biotech, Birmingham, U.S.A.), and rabbit anti-mouse-HRP (Southern-Biotech, Birmingham, U.S.A.) were diluted 1:200-1:1000 for ELISA experiments.
All integrins were dissolved according to manufacturer's protocol and stored in 25 μL aliquots of 100 μg/mL in PBS. For coating of one 96 well plate, 2 aliquots were thawed and dissolved in 9.95 mL of cold coating buffer for a 0.5 μg/mL solution.
After coating, the plates were subsequently sealed and stored at 4° C. overnight. […]
The following washing and incubation steps were performed according to manuscript. […] Peptides, whose integrin binding strength were to be determined, were mixed in 12 different concentrations (each 3-fold dilutions) with a fixed concentration of RGD-Knottin (both in PBS, 15 min, room temperature), followed by incubation of the plates with peptide/RGD-Knottin solutions.
Substrate buffer incubation and absorbance measurements were identical to that for binding ELISA. […]
(In an ELISA, binding on a coated surface is turned into a signal by an enzyme label.)

The target of data set [3] is T2, recombinant human integrin α1β1 (human, UniProt P56199 29-1141; P05556 21-728).
T2 construct: Bought from R&D Systems
In words: competition ELISA with biotinylated RGD-Knottin on coated integrin.

In data set [4] the target is T3, recombinant human integrin αvβ6 (human, UniProt P06756 31-992; P18564 22-707).
T3 construct: Bought from R&D Systems
The data set is described as above.

In data set [5] the target is T4, recombinant human integrin α2β1 (human, UniProt P17301 30-1132; P05556 21-728).
T4 construct: Bought from R&D Systems
Described as above.

For data set [6], the target named is T5, recombinant human integrin αvβ8 (human, UniProt P06756 31-992; P26012 43-684).
T5 construct: Bought from R&D Systems
Described as above.

In data set [7] the target is T6, recombinant human integrin αvβ5 (human, UniProt P06756 31-992; P18084 24-719).
T6 construct: Bought from R&D Systems
The description is as above.

Data set [8] concerns the target T7, recombinant human integrin αvβ1 (human, UniProt P06756 31-992; P05556 21-728).
T7 construct: Bought from R&D Systems
Described as above.

The target of data set [9] is T2, recombinant human integrin α1β1. In words: competition ELISA with Knottin; reference integrin αvβ3.
In data set [10] the target is T3, recombinant human integrin αvβ6. The description is as above.
In data set [11] the target is T4, recombinant human integrin α2β1. The description is as above.
Data set [12] deals with T5, recombinant human integrin αvβ8. Described as above.
Data set [13] concerns the target T7, recombinant human integrin αvβ1. The description is as above.
The target in data set [14] is T8, recombinant human integrin αvβ3 (human, UniProt P06756 31-992; P05106 27-718).
T8 construct: Bought from R&D Systems
As to the kind of experiment: competition ELISA; coated integrin, biotinylated RGD-Knottin as competitor (FIG. 4).

Data set [15] concerns the target T9, recombinant human integrin α9β1 (human, UniProt Q13797 30-981; P05556 21-728, limits assumed).
T9 construct: Bought from R&D Systems; Named only for the initial screening
In words: binding study with Knottin; reference integrin αvβ3.

Data set [16] concerns the target T10, recombinant human integrin α4β1 (human, UniProt P13612 34-970; P05556 21-728, limits assumed).
T10 construct: Bought from R&D Systems; Named only for the initial screening
The description is as above.

Data set [17] deals with T11, recombinant human integrin α3β1 (human, UniProt P26006 33-991; P05556 21-728).
T11 construct: Bought from R&D Systems; Named only for the initial screening
Described as above.

For data set [18], the target named is T12, recombinant human integrin α5β1 (human, UniProt P08648 42-995; P05556 21-728).
T12 construct: Bought from R&D Systems; Named only for the initial screening
Described as above.

The target of data set [19] is T13, recombinant human integrin α10β1 (human, UniProt O75578 23-1122; P05556 21-728, limits assumed).
T13 construct: Bought from R&D Systems; Named only for the initial screening
The description is as above.

The target of data set [20] is T14, recombinant human integrin α6β1 (human, UniProt P23229 24-1011; P05556 21-728, limits assumed).
T14 construct: Bought from R&D Systems; Named only for the initial screening
Described as above.

As for `O=P(O)(O)C(O)(Cc1cccnc1)P(=O)(O)O` [risedronate], the effects on pain entry in [1] (n=2483, Bingham 2006) is recorded as “favoring placebo over active drug”.

As for `N#Cc1c(N(CC(=O)[O-])CC(=O)[O-])sc(C(=O)[O-])c1CC(=O)[O-].[Sr+2].[Sr+2]` [strontium ranelate], the “risk of myocardial infarction” value in data set [1] (in vivo) was “increase the risk of myocardial infarction”.

As usually defined, the IC50 is the concentration needed to halve the response being measured. Consider “GFQDSLDSNRQDPGTDPEKGIDF-NH2 [SEQ ID No: 15]”, for which the “binding affinity (IC50) of the peptide and integrin αvβ3” value in [2] (peptide concentration giving 50% inhibition of biotinylated knottin binding, triplicate) is given as “no binding affinity within the limits of the binding assay”. For the same molecule, in data set [2] (read-out: binding affinity (IC50) of the peptide and integrin αvβ3), the IC50 is more than 3.94 mM.

B1: scrambled peptide of SEQ ID No: 15 (peptide)
peptide: GFQDSLDSNRQDPGTDPEKGIDF-NH2
notes: Synthetic, made on a Rink-amide resin; also called scramble peptide
Take B1: the binding result in data set [3], in data set [4], in data set [5], in [6], in [7] and in data set [8] was “no binding” throughout.

Take PDLQERGDNDISPFSGDGQPFKD-NH2 [peptide of SEQ ID No: 12 (canine orthologue of TPX-100)]: the “fold by which the binding affinity to αvβ3 is higher than to this integrin” value in [9], in [10], in data set [11], in data set [12], in [13] and in data set [15] was not below 300 times each time. The “fold by which the binding affinity to αvβ3 is higher than to this integrin” value in data set [16], in [17], in [18], in data set [19] and in data set [20] was not below 300 times each time. Besides, in data set [14], the concentration for half-maximal inhibition (IC50) was approximately 23 µg/mL.
